Assay results reported in patent publication US20150283227A1, “SYNTHETIC ENV PROTEINS” (priority 2012, published 2015).
“And” between values parts separate entries of the source, which are not always exact repeats. Equal entries are not always repeated. Where two headings read alike, the source gives them in different places. Where a SMILES comes first, the peptide text is derived from it. [ ]: non-standard residue; d: D form. The star is where a group is joined. ξ: configuration not given here. X1 = CC(=O)NC1C(O)[C@H](O)C(CO)O[C@H]1O[C@@H]1C(CO)O[C@@H](N*)C(NC(C)=O)C1O; Orn(CH(NH2)2) = NC(N)NCCC[C@H](N)C(=O)O; Ile(3ξ) = CCC(C)[C@H](N)C(=O)O; Thr(3ξ) = CC(O)[C@H](N)C(=O)O

Assays:
[1] = system: BnAb PG9; type: binding, human
Method: V1V2 glycopeptide binding Kd and rate constant measurements were carried out on a BIAcore 3000 instrument using an anti-human Ig Fc capture assay as described earlier (Alam, S. M.; McAdams, M.; Boren, D.; Rak, M.; Scearce, R. M.; Gao, F.; Camacho, Z. T.; Gewirth, D.; Kelsoe, G.; Chen, P.; Haynes, B. F. J. Immunol. 2007, 178, 4424-4435.). Anti-human IgG Fc antibody (Sigma Chemicals) was immobilized on a CM5 sensor chip to about 10000 response units (RU), and each antibody was captured to about 300 RU. Anti-RSV Synagis mAb was captured on the same sensor chip as a control surface. Non-specific binding and drift in signal was double referenced by subtracting binding to the control surface and blank buffer flow for each of the peptide binding interactions. All curve-fitting analyses were performed using global fit of multiple titrations to the 1:1 Langmuir model. All data analysis was performed using the BIAevaluation 4.1 analysis software (GE Healthcare).

[2] = system: BnAb CH01; assay: SPR binding of V1V2 peptides/glycopeptides to captured mAb CH01; design: species or system human
[3] = system: V2 mAb CH58; assay: SPR binding of V1V2 peptides/glycopeptides to captured V2 mAb CH58; design: species or system human; conditions: Example 6; peptide solubilized/oxidized in DMSO, 1-50 μg/mL
[4] = system: V2 mAb CH59; assay: SPR binding of V1V2 peptides to captured V2 mAb CH59; design: species or system human; conditions: Example 6; peptide oxidized by solubilization in DMSO, 50 ug/mL
Source text: FIGS. 42A-42D. Selective binding of V1V2 BnAbs to mannose derivatized V1V2 glycopeptides but not to aglycone or GlcNAc2 V1V2 peptides. SPR curves showing preferential binding of PG9 and CH01 BnAbs to Man5—(FIG. 42A) and Man3—(FIG. 42B) GlcNAc2 V1V2 glycopeptides but not to GlcNAc2 (FIG. 42C) and aglycone (FIG. 42D) peptides. By contrast, V2 mAbs CH58 and CH59 bound to both aglycone ([…]) and GlcNAc2 (FIG. 42D) V1V2 peptides. Each V1V2 peptide was oxidized by solubilization in DMSO and injected over the indicated MAb at 50 ug/mL. Data shown is after reference subtraction of non-specific signal measured over the control mAb (Synagis). Binding data are representative of at least three experiments for Man5 and Man3 V1V2 peptides and two experiments for GlcNAc2 and aglycone V1V2.
V1V2 glycopeptide binding Kd and rate constant measurements were carried out on BIAcore 3000 instruments as described earlier (Alam et al, Immunol. 178(7):4424-4435 (2007), Alam et al, J. Virol. 82(1):115-125 (2008)). Anti-human IgG Fc antibody (Sigma Chemicals) was immobilized on either a CM3 or CM5 (CM3 for kinetics and Kd determination) sensor chip (to minimize non-specific binding of peptides to chip matrix) to about 5000 Resonance Unit (RU) and each antibody was captured to about 100-200 RU on individual flow cells, in addition to one flow cell with the control Synagis mAb on the same sensor chip. […]

[5] = system: PG9 UCA; assay: SPR binding to unmutated ancestor of PG9; design: species or system human
Method: (§1) Only the V1/V2 mAb CH58 bound to the glycan-deficient (aglycone) peptide (FIG. 9A). V1/V2 bNAbs ([…], CH01) bound weakly to V1/V2 GlcNAc2 peptide (FIG. 9B). In contrast, both bNAbs PG9 and CH01 bound avidly to the glycopeptides, V1/V2 Man3GlcNAc2 and V1/V2 Man5GlcNAc2 (FIGS. 9C and 9D). CH58 bound weakly to both glycopeptides. Each of the mAbs was captured on a human Fc specific IgG directly immobilized on a BIAcore CM5 sensor chip. Each of the V1/V2 peptides (3 min at 50 uL/min) was injected over the mAb captured surface and SPR binding was monitored on a BIAcore 3000 instrument. Non-specific binding of peptides was subtracted following measurement of signal on a surface with a control ant-RSV mab Synagis.
(§2) The binding Kd (disassociation constant) of the UAs ranges from about 0.15 to 0.2 μM.
(§3) V1V2 glycopeptide binding Kd and rate constant measurements were carried out on BIAcore 3000 instruments as described earlier (Alam et al, Immunol. 178(7):4424-4435 (2007), Alam et al, J. Virol. 82(1):115-125 (2008)). Anti-human IgG Fc antibody (Sigma Chemicals) was immobilized on either a CM3 or CM5 (CM3 for kinetics and Kd determination) sensor chip (to minimize non-specific binding of peptides to chip matrix) to about 5000 Resonance Unit (RU) and each antibody was captured to about 100-200 RU on individual flow cells, in addition to one flow cell with the control Synagis mAb on the same sensor chip. Non-specific binding of V1V2 glycopeptide was double-referenced by substracting the control surface and blank buffer flow for each mAb-V1V2 glycopeptide binding interaction. […] SPR curve fitting analysis was performed using global fit of multiple titrations to the 1:1 Langmuir model. All data analysis was performed using the BIAevaluation 4.1 analysis software (GE Healthcare).

[6] = system: CH01 UCA; assay: SPR binding to unmutated ancestor of CH01; design: species or system human
Method: as §1, §2, §3

[7] = system: CH58 UCA; assay: SPR binding to unmutated ancestor of CH58; design: species or system human; conditions: Example 1
Method: as §1, §3

[8] = Circular dichroism analysis of V1V2 peptides; type: physicochemical; conditions: dimerized in 20% DMSO-phosphate buffer about 20 h
Method: Circular dichroism (CD) spectra of V1/V2 peptides were measured on an Aviv model 202 spectropolarimeter using a 1 mm path length quartz cuvette. The 20% DMSO-treated peptides were dialyzed against 20 mM phosphate buffer, pH 7.0 to remove DMSO using a dialysis cassette of MW cut-off 3500 Da. The CD spectra of peptides (at 100 200 μg/ml concentration) in phosphate buffer (pH 7.4) were recorded at 25° C. Three scans of the CD spectra of each peptide were averaged and the CD signal from phosphate buffer was subtracted out.

[9] = target: PG9; conditions: NMR studies, Man5GlcNAc2-Asn alone; read-out: Kd for binding of PG9; cited from earlier work
[10] = target: Man5GlcNAc2 V1V2 glycopeptide, DMSO-oxidized disulfide-linked dimer (HIV-1 strain AE.CM244 (A244)); assay: SPR kinetics, DMSO-oxidized dimer; reference CH01
[11] = target: Man5GlcNAc2 V1V2 glycopeptide, DMSO-oxidized disulfide-linked dimer (HIV-1 strain AE.CM244 (A244)); assay: SPR kinetics, DMSO-oxidized dimer; reference CH58 UCA
[12] = target: Man3GlcNAc2 V1V2 glycopeptide, DMSO-oxidized disulfide-linked dimer (HIV-1 strain AE.CM244 (A244)); assay: SPR kinetics, mAb captured on anti-IgG, DMSO-oxidized dimer injected; 1:1 Langmuir
[13] = target: Man5GlcNAc2 V1V2 glycopeptide, DMSO-oxidized disulfide-linked dimer (HIV-1 strain AE.CM244 (A244)); assay: as above
[14] = target: Man3GlcNAc2 V1V2 glycopeptide, DMSO-oxidized disulfide-linked dimer (HIV-1 strain AE.CM244 (A244)); assay: SPR kinetics, mAb captured on anti-IgG, DMSO-oxidized dimer injected; faster component of the dissociation phase
[15] = target: Man5GlcNAc2 V1V2 glycopeptide, DMSO-oxidized disulfide-linked dimer (HIV-1 strain AE.CM244 (A244)); assay: as above
[16] = target: Man3GlcNAc2 V1V2 glycopeptide, DMSO-oxidized disulfide-linked dimer (HIV-1 strain AE.CM244 (A244)); assay: SPR, DMSO-oxidized dimer 1-10 µg/mL over CH58 UCA captured on anti-IgG
[17] = target: Man5GlcNAc2 V1V2 glycopeptide, DMSO-oxidized disulfide-linked dimer (HIV-1 strain AE.CM244 (A244)); assay: as above
[18] = target: Man5GlcNAc2 V1V2 glycopeptide, DMSO-oxidized disulfide-linked dimer (HIV-1 strain AE.CM244 (A244)); assay: SPR kinetics, DMSO-oxidized dimer injected over captured mAb
[19] = target: Man3GlcNAc2 V1V2 (2), not deliberately oxidized (HIV-1 strain AE.CM244 (A244)); assay: SPR, BIAcore 3000, PG9 captured on anti-human Ig Fc, glycopeptide as analyte; 1:1 Langmuir global fit
[20] = target: Man5GlcNAc2 V1V2 (1), not deliberately oxidized (HIV-1 strain AE.CM244 (A244)); assay: as above
[21] = target: Man5GlcNAc2 V1V2 glycopeptide, DMSO-oxidized disulfide-linked dimer (HIV-1 strain AE.CM244 (A244)); assay: SPR kinetics, DMSO-oxidized dimer; reference PG9
[22] = Example 6, peptide solubilized/oxidized in DMSO, 50 μg/mL

CCC(C)[C@H](NC(=O)[C@@H]1CCCN1C(=O)[C@@H](NC(=O)[C@@H](NC(=O)[C@H](CC(=O)O)NC(=O)[C@H](CC(C)C)NC(=O)[C@H](CCCCN)NC(=O)[C@H](Cc1ccc(O)cc1)NC(=O)[C@H](Cc1ccccc1)NC(=O)[C@H](CC(C)C)NC(=O)[C@H](C)NC(=O)[C@H](Cc1cnc[nH]1)NC(=O)[C@@H](NC(=O)[C@H](CCCCN)NC(=O)[C@H](CCC(N)=O)NC(=O)[C@H](CCCCN)NC(=O)[C@H](CCCCN)NC(=O)[C@H](CC(=O)O)NC(=O)[C@H](CCCNC(=N)N)NC(=O)[C@H](CC(C)C)NC(=O)[C@H](CCC(=O)O)NC(=O)[C@@H](NC(=O)[C@@H](NC(=O)[C@H](CCSC)NC(=O)[C@H](CC(=O)N[C@@H]1OC(CO)[C@@H](O[C@@H]2OC(CO)[C@@H](O)C(O)C2NC(C)=O)C(O)C1NC(C)=O)NC(=O)[C@H](Cc1ccccc1)NC(=O)[C@H](CO)NC(=O)[C@H](CS)NC(=O)[C@H](CC(=O)N[C@@H]1OC(CO)[C@@H](O[C@@H]2OC(CO)[C@@H](O)C(O)C2NC(C)=O)C(O)C1NC(C)=O)NC(=O)[C@H](CCCNC(N)N)NC(=O)[C@@H](NC(=O)[C@H](CCC(=O)O)NC(=O)[C@H](CC(=O)O)NC(=O)[C@@H](NC(=O)[C@@H](NC(C)=O)C(C)CC)C(C)O)C(C)C)C(C)O)C(C)O)C(C)C)C(C)CC)C(C)C)C(N)=O (stereo partly drawn) [GlcNAc2 V1V2] (Ac-[Ile(3ξ)][Thr(3ξ)]DEV[Orn(CH(NH2)2)]D(X1)CSFD(X1)M[Thr(3ξ)][Thr(3ξ)]ELRDKKQKVHALFYKLD[Ile(3ξ)]VP[Ile(3ξ)]-NH2)
SPR binding to PG9 ([1]; Example 1, peptide injected over mAb captured on anti-human Fc, BIAcore 3000): bound weakly
SPR binding to PG9 ([1]; Example 5, peptides 200 μg/mL, glycans 25 μg/mL over captured PG9, listed as 3): did not bind
SPR binding to PG9 ([1]; Example 5, peptides 200 μg/mL, glycans 25 μg/mL over captured PG9, listed as V1V2 GlcNAc2): minimal to no binding
SPR binding to PG9 [1, 22]: no binding
SPR binding to CH01 ([2]; Example 1, peptide injected over captured mAb): bound weakly
SPR binding to CH01 [2, 22]: no binding
SPR binding to CH58 [3]: retained
SPR binding to CH59 [4]: bound
SPR binding to PG9 UA ([5]; Example 1): no binding
SPR binding to PG9 UCA ([5]; Example 6): neither UCAs bound
SPR binding to CH01 UA ([6]; Example 1): slow association indicating weak affinity interaction
SPR binding to CH01 UCA ([6]; Example 6): neither UCAs bound
SPR binding to CH58 UA [7]: no binding
β-strand (CD spectra deconvolution, K2D3) [8]: 17%

CC(=O)N[C@@H]1[C@@H](O)[C@H](O[C@@H]2O[C@H](CO)[C@@H](O[C@@H]3O[C@H](CO[C@H]4O[C@H](CO[C@H]5O[C@H](CO)[C@@H](O)[C@H](O)[C@@H]5O)[C@@H](O)[C@H](O[C@H]5O[C@H](CO)[C@@H](O)[C@H](O)[C@@H]5O)[C@@H]4O)[C@@H](O)[C@H](O[C@H]4O[C@H](CO)[C@@H](O)[C@H](O)[C@@H]4O)[C@@H]3O)[C@H](O)[C@H]2NC(C)=O)[C@@H](CO)O[C@H]1NC(=O)C[C@H](N)C(=O)O [Man5GlcNAc2-Asn]
Kd [9]: 1000 to 2000 µM and 1600 µM

CH01 UCA (antibody)
fold weaker binding than the mature BnAb [10]: 3 fold
fold higher affinity than the UCA of CH58 [11]: 5 fold
kon [12]: 2060 M⁻¹ s⁻¹
kon [13]: 8490 M⁻¹ s⁻¹
Kd [14]: 1.78 µM
koff [14]: 0.00363 s⁻¹
Kd [15]: 0.118 µM
koff [15]: 0.000721 s⁻¹

CH58 UCA (antibody)
Kd [16]: 0.6 µM
Kd [17]: 0.5 µM

PG9 (antibody)
fold higher affinity than CH01 for the same peptide [18]: 2 fold
Kd [12]: 0.0371 µM
koff [12]: 0.000147 s⁻¹
kon [12]: 3970 M⁻¹ s⁻¹
Kd [13]: 0.0294 µM
koff [13]: 0.000271 s⁻¹
kon [13]: 9200 M⁻¹ s⁻¹
Kd [19]: 0.119 µM
Kd [20]: 0.311 µM

PG9 UCA (antibody)
fold weaker binding than the mature BnAb [21]: 3 fold
fold higher affinity than the UCA of CH58 [11]: 5 fold
kon [12]: 5330 M⁻¹ s⁻¹
kon [13]: 7410 M⁻¹ s⁻¹
Kd [14]: 1.06 µM
koff [14]: 0.00566 s⁻¹
Kd [15]: 0.0976 µM
koff [15]: 0.000723 s⁻¹
